# Results: article PMC11272584 (Nature Metabolism, 2024)
# Residue numbers refer to the chain shown, from its start.
# What was measured:
# GIPR A185V (human) = target: T1, GIPR A185V (human) (UniProt P48546)
# T1 sequence: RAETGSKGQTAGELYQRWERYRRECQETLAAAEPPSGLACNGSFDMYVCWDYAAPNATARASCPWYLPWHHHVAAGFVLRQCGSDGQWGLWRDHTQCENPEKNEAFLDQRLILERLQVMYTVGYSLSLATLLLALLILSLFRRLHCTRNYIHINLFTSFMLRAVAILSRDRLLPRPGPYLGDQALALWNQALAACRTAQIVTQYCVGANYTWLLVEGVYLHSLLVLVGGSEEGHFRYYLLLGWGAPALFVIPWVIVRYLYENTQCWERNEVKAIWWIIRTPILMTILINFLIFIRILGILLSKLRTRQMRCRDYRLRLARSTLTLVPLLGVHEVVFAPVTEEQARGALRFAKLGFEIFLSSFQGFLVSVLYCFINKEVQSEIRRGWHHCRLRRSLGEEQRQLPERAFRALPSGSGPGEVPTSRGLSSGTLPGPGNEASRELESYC
# GIPR A207V (human) = target: T2, GIPR A207V (human) (UniProt P48546)
# T2 sequence: T1 sequence with V164A, A186V
# GIPR E463Q (human) = target: T3, GIPR E463Q (human) (UniProt P48546)
# T3 sequence: T1 sequence with V164A, E442Q
# GIPR L13F (human) = GIPR L13F (human) (UniProt P48546)
# GIPR P195R (human) = target: T4, GIPR P195R (human) (UniProt P48546)
# T4 sequence: T1 sequence with V164A, P174R
# GIPR R43G (human) = target: T5, GIPR R43G (human) (UniProt P48546)
# T5 sequence: T1 sequence with R22G, V164A
# GIPR S382T (human) = target: T6, GIPR S382T (human) (UniProt P48546)
# T6 sequence: T1 sequence with V164A, S361T
substance,measurement,setting,value
β-arrestin 2 (Rluc8-Arrestin-3-Sp1) (from UniProt P32121 1-409) (natural protein),β-arrestin 2 recruitment (BRET) on stimulation with GIP(1-42): logEC50 (Arrestin) (log M (inferred)),GIPR A185V (human),-8.96
same,β-arrestin 2 recruitment (BRET) on stimulation with GIP(1-42): logEC50 (Arrestin) (log M (inferred)),GIPR A207V (human),-9.42
same,β-arrestin 2 recruitment (BRET) on stimulation with GIP(1-42): logEC50 (Arrestin) (log M (inferred)),GIPR E463Q (human),-9.08
same,β-arrestin 2 recruitment (BRET) on stimulation with GIP(1-42): logEC50 (Arrestin) (log M (inferred)),GIPR L13F (human),-8.75
same,β-arrestin 2 recruitment (BRET) on stimulation with GIP(1-42): logEC50 (Arrestin) (log M (inferred)),GIPR P195R (human),-9.04
same,β-arrestin 2 recruitment (BRET) on stimulation with GIP(1-42): logEC50 (Arrestin) (log M (inferred)),GIPR R43G (human),-9.1
same,β-arrestin 2 recruitment (BRET) on stimulation with GIP(1-42): logEC50 (Arrestin) (log M (inferred)),GIPR S382T (human),-9.39
